Test results published in the RNAGym collection of RNA variant scans (doi:10.1021/acssynbio.7b00057).

B1: Pistol ribozyme (parent)
chain: GGGUCGUUGUUCCAUAAUCGCGUGGAUAUGGCACGCAAGUUUCUACCGGGCACCGUAAAUGUCCGACUGGAGCCGUUCGGGCGGCUAUAAACAGACCUCAGGCCCGAAGCGUGGCGGCACCUGCCGCCGGUGGUAAAAAAGAUCGGAAGAGCACACGUCU

Variants of: B1
Assay: aptazyme ON/OFF ratio, guanine; higher = stronger switching; co-transcriptional cleavage with and without guanine

Row | Variant | aptazyme ON/OFF ratio
1 | U7G U8A G9A C12A | 1.06
2 | U7G U8A G9A C12U | 1.12
3 | U7G U8A G9A C12G | 1.18
4 | U7G G9U U11G C13U | 1.26
5 | U7G G9U U11G C13G | 1.3
6 | U7G G9U U11G C13A | 1.3
7 | U7G G9U U10C U11C C12A C13U | 1.47
8 | U7G U8A C13G | 1.41
9 | U7G U8A C13U | 0.972
10 | U7G U8A C13A | 1.35
11 | U7G G9U U11A C13A | 1.34
12 | U7G G9U U11A C13G | 1.13
13 | U7G G9U U11A C13U | 1.27
14 | U7G G9U U10G C12G C13U | 1.4
15 | U7G G9U U10G C12G C13A | 1.15
16 | U7G G9U U10G C12G C13G | 1.2
17 | U7G G9U U10G U11C C13G | 1.11
18 | U7G G9U U10G U11C C13U | 1.1
19 | U7G G9U U10G U11C C13A | 1.2
20 | U7G G9U U10G | 3.04
21 | U7G G9U U10C U11C C13U | 1.09
22 | U7G G9U U10C U11C C13A | 1.05
23 | U7G G9U U10C U11C C13G | 1.07
24 | U7G G9U U10G U11G | 1.74

Row | Variant | aptazyme ON/OFF ratio
25 | U7G G9U U10G U11C | 1.13
26 | U7G G9U U10G U11A | 1.23
27 | U7G U8A G9A C12G C13A | 1.13
28 | U7G U8A G9A C12G C13U | 1.11
29 | U7G U8A G9A C12G C13G | 1.04
30 | U7G G9U U10C U11G C12A C13G | 1.13
31 | U7G G9U U10C U11G C12A C13A | 1.1
32 | U7G G9U U10C U11G C12A C13U | 1.16
33 | U7G G9U U10G U11C C12U | 1.17
34 | U7G G9U U10G U11C C12G | 1.48
35 | U7G G9U U10G U11C C12A | 1.62
36 | U7G G9U U10C U11G C12U | 1.49
37 | U7G G9U U10C U11G C12G | 1.25
38 | U7G G9U U10C U11G C12A | 1.13
39 | U7G G9U U11C C12G C13G | 1.26
40 | U7G G9U U11C C12G C13A | 1.22
41 | U7G G9U U11C C12G C13U | 1.37
42 | U7G U8A C12U C13A | 1.43
43 | U7G U8A C12U C13U | 1.42
44 | U7G U8A C12U C13G | 1.38
45 | U7G G9U U10G U11G C13A | 1.22
46 | U7G G9U U10G U11G C13G | 1.18
47 | U7G G9U U10G U11G C13U | 1.3
48 | U7G G9U U10C U11G | 2.9

Row | Variant | aptazyme ON/OFF ratio
49 | U7G G9U U11G C12G | 1.74
50 | U7G G9U U11G C12A | 1.82
51 | U7G G9U U11G C12U | 1.2
52 | U7G G9U U10G C12U C13U | 1.25
53 | U7G G9U U10G C12U C13G | 1.34
54 | U7G G9U U10G C12U C13A | 1.28
55 | U7G G9U U11C C12G | 1.74
56 | U7G G9U U11C C12U | 2.32
57 | U7G G9U U11C C12A | 1.61
58 | U7G U8A G9A C12A C13G | 1.11
59 | U7G U8A G9A C12A C13U | 1.1
60 | U7G U8A G9A C12A C13A | 1.25
61 | U7G G9U U10G U11G C12U | 1.29
62 | U7G G9U U10G U11G C12G | 1.16
63 | U7G G9U U10G U11G C12A | 1.11
64 | U7G G9U U11C C12U C13U | 1.31
65 | U7G G9U U11C C12U C13A | 1.37
66 | U7G G9U U11C C12U C13G | 1.3
67 | U7G G9U U10G U11G C12G C13A | 1.1
68 | U7G G9U U10G U11G C12G C13U | 1.27
69 | U7G G9U U10G U11G C12G C13G | 1.17
70 | U7G G9U U10C U11C C12U C13G | 1.23
71 | U7G G9U U10C U11C C12U C13U | 1.29
72 | U7G G9U U10C U11C C12U C13A | 1.25

Row | Variant | aptazyme ON/OFF ratio
73 | U7G G9U U10C U11C C12G | 1.23
74 | U7G G9U U10C U11C C12U | 1.41
75 | U7G G9U U10G C13G | 1.21
76 | U7G G9U U10G C13A | 1.39
77 | U7G G9U U10G C13U | 1.48
78 | U7G G9U U10G U11C C12G C13A | 1.16
79 | U7G G9U U10G U11C C12G C13U | 1.36
80 | U7G G9U U10G U11C C12G C13G | 1.07
81 | U7G G9U U11C C12A C13G | 1.28
82 | U7G G9U U11C C12A C13A | 1.42
83 | U7G G9U U11C C12A C13U | 1.41
84 | U7G U8A G9A | 2.45
85 | U7G G9U U11A C12U C13U | 1.07
86 | U7G G9U U11A C12U C13G | 1.27
87 | U7G G9U U11A C12U C13A | 1.25
88 | U7G G9U U10C U11G C12G C13U | 1.06
89 | U7G G9U U10C U11G C12G C13A | 1.13
90 | U7G G9U U10C U11G C12G C13G | 1.12
91 | U7G G9U U10G C12A C13A | 1.12
92 | U7G G9U U10G C12A C13G | 1.12
93 | U7G G9U U10G C12A C13U | 1.41
94 | U7G G9U U10G C12U | 1.55
95 | U7G G9U U10G C12G | 1.36
96 | U7G G9U U10G C12A | 1.7

Row | Variant | aptazyme ON/OFF ratio
97 | U7G G9U U10G U11A C12U C13G | 1.17
98 | U7G G9U U10G U11A C12U C13U | 1.23
99 | U7G G9U U10G U11A C12U C13A | 1.17
100 | U7G G9U U10G U11A C12A C13A | 1.16
101 | U7G G9U U10G U11A C12A C13G | 1.06
102 | U7G G9U U10G U11A C12A C13U | 1.16
103 | U7G G9U U10G U11C C12U C13G | 1.25
104 | U7G G9U U10G U11C C12U C13U | 1.44
105 | U7G G9U U10G U11C C12U C13A | 1.23
106 | U7G G9U U11C C13U | 1.65
107 | U7G G9U U11C C13A | 1.37
108 | U7G G9U U11C C13G | 1.05
109 | U7G G9U U10G U11G C12U C13G | 1.05
110 | U7G G9U U10G U11G C12U C13U | 1.29
111 | U7G G9U U10G U11G C12U C13A | 1.22
112 | U7G G9U U11G C12U C13U | 1.44
113 | U7G G9U U11G C12U C13A | 1.31
114 | U7G G9U U11G C12U C13G | 1.37
115 | U7G G9U U11A C12U | 1.32
116 | U7G G9U U11A C12G | 1.46
117 | U7G G9U U11A C12A | 1.56
118 | U7G G9U U10C U11C C12G C13U | 1.31
119 | U7G G9U U10C U11C C12G C13G | 1.2
120 | U7G G9U U10C U11C C12G C13A | 1.17

Row | Variant | aptazyme ON/OFF ratio
121 | U7G G9U U10G U11A C12G C13G | 1.17
122 | U7G G9U U10G U11A C12G C13U | 1.18
123 | U7G G9U U10G U11A C12G C13A | 1.19
124 | U7G U8A G9A C12U C13A | 1.13
125 | U7G G9U U11A C12A C13A | 1.3
126 | U7G G9U U11A C12A C13U | 1.43
127 | U7G G9U U11A C12A C13G | 1.23
128 | U7G U8A | 1.54
129 | U7G G9U U11G C12G C13A | 1.19
130 | U7G G9U U11G C12G C13U | 1.29
131 | U7G G9U U11G C12G C13G | 1.21
132 | U7G U8A C12U | 1.44
133 | U7G U8A C12G | 1.35
134 | U7G U8A C12A | 1.27
135 | U7G U8A C12G C13A | 1.51
136 | U7G U8A C12G C13G | 1.17
137 | U7G U8A C12G C13U | 1.46
138 | U7G G9U U10G U11A C12A | 1.15
139 | U7G G9U U10G U11A C12U | 1.27
140 | U7G G9U U10G U11A C12G | 1.26
141 | U7G G9U U10G U11C C12A C13A | 1.14
142 | U7G G9U U10G U11C C12A C13G | 1.23
143 | U7G G9U U10G U11C C12A C13U | 1.33
144 | U7G G9U U11A C12G C13A | 1.1

Row | Variant | aptazyme ON/OFF ratio
145 | U7G G9U U11A C12G C13G | 1.23
146 | U7G G9U U11A C12G C13U | 1.36
147 | U7G G9U U10C U11G C12U C13G | 1.23
148 | U7G G9U U10C U11G C12U C13A | 1.22
149 | U7G G9U U10C U11G C12U C13U | 1.22
150 | U7G G9U U10G U11G C12A C13G | 1.07
151 | U7G G9U U10G U11G C12A C13U | 1.19
152 | U7G G9U U10G U11G C12A C13A | 1.11
153 | U7G U8A C12A C13G | 1.14
154 | U7G U8A C12A C13A | 1.27
155 | U7G U8A C12A C13U | 1.23
156 | U7G G9U U10G U11A C13U | 1.17
157 | U7G G9U U10G U11A C13G | 1.16
158 | U7G G9U U10G U11A C13A | 1.15
159 | U7G G9U U11A | 1.42
160 | U7G G9U U11C | 4.69
161 | U7G G9U U11G | 2.13
162 | U7G G9U U10C U11G C13U | 1.38
163 | U7G G9U U10C U11G C13A | 1.32
164 | U7G G9U U10C U11G C13G | 1.22
165 | U7G G9U U11G C12A C13A | 1.11
166 | U7G G9U U11G C12A C13U | 1.26
167 | U7G G9U U11G C12A C13G | 1.2
